Results published in article PMC12700550, “DLL4^+ neutrophils promote Notch1-mediated endothelial PANoptosis to exacerbate acute lung injury in sepsis” (The Journal of Clinical Investigation, 2025).
Values joined by “and” are separate entries in the source; they are usually repeats but may differ in a detail not shown here. Identical values can stand only once.

B1: eCIRP: extracellular cold-inducible RNA-binding protein; recombinant murine, produced in our laboratory (protein, UniProt P60824 1-172, looked up)
Cold-inducible RNA-binding …: MASDEGKLFVGGLSFDTNEQALEQVFSKYGQISEVVVVKDRETQRSRGFGFVTFENIDDAKDAMMAMNGKSVDGRQIRVDQAGKSSDNRSRGYRGGSAGGRGFFRGGRSRGRGFSRGGGDRGYGGGRFESRSGGYGGSRDYYASRSQGGSYGYRSSGGSYRDSYDSYATHNE

Tests used:
[1] = tested on: IL-6; assay: Lung IL-6 mRNA, CLP mice; assay type: in vivo, mouse; conditions: 20 h; for lung IL-6 mRNA (Figure 6G): 10 mg/kg NDI, vs sham, individual mice
Description: Sepsis was induced in mice by cecal ligation and puncture (CLP) as described previously ([45], [46]). Mice were anesthetized with isoflurane to a surgical plane and placed in a supine position. CLP was performed through a midline laparotomy. The abdomen was shaved and disinfected. Through a 2 cm midline incision, the cecum was exposed and then ligated with a 4-0 silk suture 1 cm proximal from the distal cecal extremity. For 20-hour CLP experiments, the cecum was punctured twice with a 22-gauge needle. A small amount of cecal content was extruded through both holes, and the ligated cecum was returned to the peritoneal cavity. The wound was closed in layers. For 10-day sepsis survival studies, the cecum was punctured once with a 22-gauge needle. A small amount of cecal content was extruded. Mice were allocated to the vehicle and adoptive transfer of DLL4^+ neutrophils or DLL4^– neutrophils groups. Adoptive transfer mice received a retro-orbital injection of 1 × 10^6 cells per mouse DLL4^+ neutrophils or DLL4^– neutrophils in […] phosphate-buffered saline (PBS) immediately after abdominal closure in both the 20-hour experiments and the survival study. Vehicle groups received an equivalent volume of PBS, while treatment groups received NDI 10 mg/kg in […] PBS via retro-orbital injection after CLP. This dose was chosen primarily on the basis of our laboratory’s prior experience, we have consistently used this dose in mouse CLP models with reproducible efficacy and without observable toxicity ([39], [44]). Sham-operated animals underwent a laparotomy without CLP. After closure, the mice received a subcutaneous injection of 0.5 mL of normal saline to overcome surgery-induced dehydration. For 20-hour experiments, animals were not injected with antibiotics; however, for survival studies, animals were given 0.5 mg per kg body weight imipenem (lot 4D21K05, WG Critical Care LLC) subcutaneously in 0.5 mL saline once at the end of CLP. All mice were subcutaneously injected with a single dose of 0.1 mg/kg buprenorphine after CLP. […]

[2] = tested on: IL-6; assay: Serum IL-6, CLP mice, ELISA; assay type: in vivo, mouse; conditions: DLL4^+ neutrophil-injected CLP mice, 10 mg/kg, 20 h
Description: Sepsis was induced in mice by cecal ligation and puncture (CLP) as described previously ([45], [46]). Mice were anesthetized with isoflurane to a surgical plane and placed in a supine position. CLP was performed through a midline laparotomy. The abdomen was shaved and disinfected. Through a 2 cm midline incision, the cecum was exposed and then ligated with a 4-0 silk suture 1 cm proximal from the distal cecal extremity. For 20-hour CLP experiments, the cecum was punctured twice with a 22-gauge needle. A small amount of cecal content was extruded through both holes, and the ligated cecum was returned to the peritoneal cavity. The wound was closed in layers. For 10-day sepsis survival studies, the cecum was punctured once with a 22-gauge needle. A small amount of cecal content was extruded. Mice were allocated to the vehicle and adoptive transfer of DLL4^+ neutrophils or DLL4^– neutrophils groups. […]
Blood was collected by heart puncture and centrifuged at 1,500g and 4°C for 10 minutes, and the plasma was separated to assess cytokine levels using enzyme-linked immunosorbent assay (ELISA) kits (BD Biosciences). The plasma TNF-α (catalog 558534) and IL-6 (catalog 555240) levels were measured by ELISA.

[3] = tested on: DLL3; assay: DLL3 mRNA in eCIRP-treated BMDNs, qPCR; assay type: cell-based, mouse; conditions: for DLL3 mRNA: DLL3-CIRP
Description: mRNA was extracted from lung tissues with TRIzol reagent (Invitrogen, Thermo Fisher Scientific). An equal amount ([…]) of mRNA was reverse-transcribed into cDNA using the reverse transcriptase enzyme (Invitrogen, Thermo Fisher Scientific). qPCR was performed from the diluted cDNA templates with forward and reverse primers (Supplemental Table 4) and SYBR Green PCR Master Mix (Applied Biosystems, Thermo Fisher Scientific) using an Applied Biosystems 7300 real-time PCR machine. Mouse β-actin served as an internal control gene for normalization. Relative expression of mRNA was represented as fold change in comparison with the sham group.
BMDNs (1 × 10^6) were treated with eCIRP (1 μg/mL) for 12 hours, and DLL1, DLL3, and DLL4 were analyzed by qPCR.

Molecule	effect on lung IL-6 mRNA ([1]; DLL4^+ neutrophil-injected CLP mice, 10 mg/kg)	lung IL-6 mRNA (Figure 6G) ([1]; DLL4^+ neutrophils + CLP)	lung IL-6 mRNA (Figure 6G) ([1]; DLL4^– neutrophils + CLP)	effect on serum IL-6 [2]	effect on DLL3 expression ([3]; BMDNs, eCIRP 1 μg/mL, 12 h)	DLL3 mRNA ([3]; replicate 1)	DLL3 mRNA ([3]; replicate 2)	DLL3 mRNA ([3]; replicate 3)	DLL3 mRNA ([3]; replicate 4)	DLL3 mRNA ([3]; replicate 5)	DLL3 mRNA ([3]; replicate 6)
ECAGSPCHNGGTCEDGI [NDI]	significantly decreased the mRNA expression of TNF-α, IL-6, and KC in lung tissues	1.4984 fold change and 1.1005 fold change and 1.349 fold change and 4.056 fold change and 2.97 fold change and 2.032 fold change and 0.08381 fold change and 1.663 fold change and 5.861 fold change and 2.132 fold change and 6.132 fold change	2.369 fold change and 4.979 fold change and 4.806 fold change and 5.561 fold change and 5.531 fold change and 4.244 fold change and 1.214 fold change and 2.2297 fold change and 4.655 fold change	significantly reduced the serum levels of hepatic and cell injury markers and proinflammatory cytokines	–	–	–	–	–	–	–
B1	–	–	–	–	no significant induction of DLL1 or DLL3	0.2832	1.673	0.009923	0.01002	0.02772	0.1715
